Data as given in paper PMC9239266 (mBio, 2022).

B1: CopC ΔN50 (recombinant) (domain or fragment)
chain: AAGKIGAFLRKAVAAQSYGLMFANGKLFEATGDALEKRGQYGFSALQRLDGLSRRNLAAVEARLGALDSAERGLKERIMTGAWHFRHQSNAALDDGKTAAIASNHLLARESRSSGGNTFAGDKALLSNHDFVFFGVEFSGRGKQDKPLNHKHSTMDFGANAYVVPDTLPACRHGYLTLTDHFFNRVPGGREAEHQDFVGSFPQMGAETGRWIHEGKYRQNAPIFNYRDMKAAVALHLIEFLRDSKDAAFKAYVFDQAMQSGQALDRVLNSVFQAEFHIPRLMATTDYAKHPLRPMLLKEAVDSVNLPALSGLVSSKGDAVTAMWHAIDKGKDAVAAHLLGNWRFEAGDFASAPPGFYHELNYALSEHGASVYILDQFLSRGWAAVNAPFEHVNSGETMLDNAVKYGNREMAAALIKHGADRNLLSEWNGGKLDALLA
notes: also called CopC Δ50; source: E. coli BL21(DE3), purified (glutathione-Sepharose, GST removed by PreScission protease)
B2: caspase-7 p30 (C186A), ΔN23 (enzyme, human, UniProt P55210 24-303, looked up)
chain: AKPDRSSFVPSLFSKKKKNVTMRSIKTTRDRVPTYQYNMNFEKLGKCIIINNKNFDKVTGMGVRNGTDKDAEALFKCFRSLGFDVIVYNDCSCAKMQDLLKKASEEDHTNAACFACILLSHGEENVIYGKDGVTPIKDLTAHFRGDRCKTLLEKPKLFFIQAARGTELDDGIQADSGPINDTDANPRYKIPVEADFLFAYSTVPGYYSWRSPGRGSWFVQALCSILEEHGKDLEIMQILTRVNDRVARHFESQSDDPHFHEKKQIPCVVSMLTKELYFSQ
notes: also called CASP7 p30^C186A; caspase-7 p30 (C/A); source: E. coli BL21(DE3), purified (Ni-Sepharose)

Experiments:
recombinant CaM = target: T1, recombinant CaM (human, UniProt P0DP23 1-149); test: SEC; details: both partners purified
T1 construct: also called calmodulin; Ca^2+-free CaM

CopC ΔN50 (recombinant) = target: B1; test: SEC; details: both partners purified

Row | Binder | binding result (recombinant CaM) | binding result (CopC ΔN50 (recombinant))
1 | B1 | binds | 
2 | B2 |  | binds
